The source of these data is patent US20090170763A1 (KENJI KANGAWA, published 2009).

The labels stand for the following.
B1: [Dap^3(Octanoyl)]-hGhrelin (peptide)
peptide: GSXFLSPEHQRVQQRKESKKPPAKLQPR
modifications: position 3 (X) is L-2,3-diaminopropionic acid (Dap) with N-octanoyl side chain (CH2NHCO-C7H15)
B2: [Aib^1,His^2,Ser^3(Octyl),Lys^5]-Ghrelin (1-5)-amide (peptide)
peptide: [Aib]HS(Octyl)FK-NH2
modifications: N-terminus assumed
SMILES: CCCCCCCCOC[C@H](NC(=O)[C@H](Cc1c[nH]cn1)NC(=O)C(C)(C)N)C(=O)N[C@@H](Cc1ccccc1)C(=O)N[C@@H](CCCCN)C(N)=O
B3: [Cys^3(Octyl),^DPhe^4]-Ghrelin (1-7)-amide (peptide)
peptide: GSC(Octyl)[dF]LSP-NH2
modifications: N-terminus assumed
SMILES: CCCCCCCCSC[C@H](NC(=O)[C@H](CO)NC(=O)CN)C(=O)N[C@H](Cc1ccccc1)C(=O)N[C@@H](CC(C)C)C(=O)N[C@@H](CO)C(=O)N1CCC[C@H]1C(N)=O
B4: [Lys^7]-Ghrelin (1-7)-amide (peptide)
peptide: GSS(Octanoyl)FLSK-NH2
modifications: N-terminus assumed
SMILES: CCCCCCCC(=O)OC[C@H](NC(=O)[C@H](CO)NC(=O)CN)C(=O)N[C@@H](Cc1ccccc1)C(=O)N[C@@H](CC(C)C)C(=O)N[C@@H](CO)C(=O)N[C@@H](CCCCN)C(N)=O
B5: [His^2]-Ghrelin (1-7)-amide (peptide)
peptide: GHS(Octanoyl)FLSP-NH2
modifications: N-terminus assumed
SMILES: CCCCCCCC(=O)OC[C@H](NC(=O)[C@H](Cc1c[nH]cn1)NC(=O)CN)C(=O)N[C@@H](Cc1ccccc1)C(=O)N[C@@H](CC(C)C)C(=O)N[C@@H](CO)C(=O)N1CCC[C@H]1C(N)=O
B6: [N-Glycyl]-Ghrelin (3-7)-amide (peptide)
peptide: GS(Octanoyl)FLSP-NH2
modifications: N-terminus assumed
SMILES: CCCCCCCC(=O)OC[C@H](NC(=O)CN)C(=O)N[C@@H](Cc1ccccc1)C(=O)N[C@@H](CC(C)C)C(=O)N[C@@H](CO)C(=O)N1CCC[C@H]1C(N)=O
B7: [Cys^3(Octyl)]-Ghrelin (1-7)-amide (peptide)
peptide: GSC(Octyl)FLSP-NH2
modifications: N-terminus assumed
SMILES: CCCCCCCCSC[C@H](NC(=O)[C@H](CO)NC(=O)CN)C(=O)N[C@@H](Cc1ccccc1)C(=O)N[C@@H](CC(C)C)C(=O)N[C@@H](CO)C(=O)N1CCC[C@H]1C(N)=O
B8: [Lys^2]-Ghrelin (1-7)-amide (peptide)
peptide: GKS(Octanoyl)FLSP-NH2
modifications: N-terminus assumed
SMILES: CCCCCCCC(=O)OC[C@H](NC(=O)[C@H](CCCCN)NC(=O)CN)C(=O)N[C@@H](Cc1ccccc1)C(=O)N[C@@H](CC(C)C)C(=O)N[C@@H](CO)C(=O)N1CCC[C@H]1C(N)=O
B9: [Aib^1,His^2,^DSer^3(Octyl),^DPhe^4,Lys^5]-Ghrelin (1-5)-amide (peptide)
peptide: [Aib]H[dS](Octyl)[dF]K-NH2
modifications: N-terminus assumed
SMILES: CCCCCCCCOC[C@@H](NC(=O)[C@H](Cc1c[nH]cn1)NC(=O)C(C)(C)N)C(=O)N[C@H](Cc1ccccc1)C(=O)N[C@@H](CCCCN)C(N)=O
B10: [^DPhe^4,Lys^5]-Ghrelin (1-5)-amide (peptide)
peptide: GSS(Octanoyl)[dF]K-NH2
modifications: N-terminus assumed
SMILES: CCCCCCCC(=O)OC[C@H](NC(=O)[C@H](CO)NC(=O)CN)C(=O)N[C@H](Cc1ccccc1)C(=O)N[C@@H](CCCCN)C(N)=O
B11: [Lys^8]-Ghrelin (1-8)-amide (peptide)
peptide: GSS(Octanoyl)FLSPK-NH2
modifications: N-terminus assumed
SMILES: CCCCCCCC(=O)OC[C@H](NC(=O)[C@H](CO)NC(=O)CN)C(=O)N[C@@H](Cc1ccccc1)C(=O)N[C@@H](CC(C)C)C(=O)N[C@@H](CO)C(=O)N1CCC[C@H]1C(=O)N[C@@H](CCCCN)C(N)=O
B12: [Arg^8]-Ghrelin (1-8)-amide (peptide)
peptide: GSS(Octanoyl)FLSPR-NH2
modifications: N-terminus assumed
SMILES: CCCCCCCC(=O)OC[C@H](NC(=O)[C@H](CO)NC(=O)CN)C(=O)N[C@@H](Cc1ccccc1)C(=O)N[C@@H](CC(C)C)C(=O)N[C@@H](CO)C(=O)N1CCC[C@H]1C(=O)N[C@@H](CCCNC(=N)N)C(N)=O
B13: [Lys^6]-Ghrelin (1-6)-amide (peptide)
peptide: GSS(Octanoyl)FLK-NH2
modifications: N-terminus assumed
SMILES: CCCCCCCC(=O)OC[C@H](NC(=O)[C@H](CO)NC(=O)CN)C(=O)N[C@@H](Cc1ccccc1)C(=O)N[C@@H](CC(C)C)C(=O)N[C@@H](CCCCN)C(N)=O
B14: [Lys^5]-Ghrelin (1-5)-amide (peptide)
peptide: GSS(Octanoyl)FK-NH2
modifications: N-terminus assumed
SMILES: CCCCCCCC(=O)OC[C@H](NC(=O)[C@H](CO)NC(=O)CN)C(=O)N[C@@H](Cc1ccccc1)C(=O)N[C@@H](CCCCN)C(N)=O
B15: [Gly^2]-Ghrelin (1-7)-amide (peptide)
peptide: GGS(Octanoyl)FLSP-NH2
modifications: N-terminus assumed
SMILES: CCCCCCCC(=O)OC[C@H](NC(=O)CNC(=O)CN)C(=O)N[C@@H](Cc1ccccc1)C(=O)N[C@@H](CC(C)C)C(=O)N[C@@H](CO)C(=O)N1CCC[C@H]1C(N)=O
B16: Ghrelin (1-6)-amide (peptide)
peptide: GSS(Octanoyl)FLS-NH2
modifications: N-terminus assumed
SMILES: CCCCCCCC(=O)OC[C@H](NC(=O)[C@H](CO)NC(=O)CN)C(=O)N[C@@H](Cc1ccccc1)C(=O)N[C@@H](CC(C)C)C(=O)N[C@@H](CO)C(N)=O
B17: Ghrelin (1-7)-amide (peptide)
peptide: GSS(Octanoyl)FLSP-NH2
modifications: N-terminus assumed
SMILES: CCCCCCCC(=O)OC[C@H](NC(=O)[C@H](CO)NC(=O)CN)C(=O)N[C@@H](Cc1ccccc1)C(=O)N[C@@H](CC(C)C)C(=O)N[C@@H](CO)C(=O)N1CCC[C@H]1C(N)=O
B18: Ghrelin (1-4)-amide (peptide)
peptide: GSS(Octanoyl)F-NH2
modifications: N-terminus assumed
SMILES: CCCCCCCC(=O)OC[C@H](NC(=O)[C@H](CO)NC(=O)CN)C(=O)N[C@@H](Cc1ccccc1)C(N)=O
B19: Ghrelin (1-5)-amide (peptide)
peptide: GSS(Octanoyl)FL-NH2
modifications: N-terminus assumed
SMILES: CCCCCCCC(=O)OC[C@H](NC(=O)[C@H](CO)NC(=O)CN)C(=O)N[C@@H](Cc1ccccc1)C(=O)N[C@@H](CC(C)C)C(N)=O
B20: Ghrelin (1-8)-amide (peptide)
peptide: GSS(Octanoyl)FLSPE-NH2
modifications: N-terminus assumed
SMILES: CCCCCCCC(=O)OC[C@H](NC(=O)[C@H](CO)NC(=O)CN)C(=O)N[C@@H](Cc1ccccc1)C(=O)N[C@@H](CC(C)C)C(=O)N[C@@H](CO)C(=O)N1CCC[C@H]1C(=O)N[C@@H](CCC(=O)O)C(N)=O

Square brackets hold non-standard residues; d marks the D form. Ends that are not written are not given here. * marks the point of attachment. Trt = c1ccc(C(c2ccccc2)(c2ccccc2)*)cc1; Octanoyl = CCCCCCCC(=O)*; Aib = CC(C)(N)C(=O)O; Octyl = CCCCCCCC* A value given as a limit tells only on which side of the number the result lay.

rat GHS-R (GHS receptor) expressed on CHO-GHSR62 cells (rat), sequence (O08725 whole entry): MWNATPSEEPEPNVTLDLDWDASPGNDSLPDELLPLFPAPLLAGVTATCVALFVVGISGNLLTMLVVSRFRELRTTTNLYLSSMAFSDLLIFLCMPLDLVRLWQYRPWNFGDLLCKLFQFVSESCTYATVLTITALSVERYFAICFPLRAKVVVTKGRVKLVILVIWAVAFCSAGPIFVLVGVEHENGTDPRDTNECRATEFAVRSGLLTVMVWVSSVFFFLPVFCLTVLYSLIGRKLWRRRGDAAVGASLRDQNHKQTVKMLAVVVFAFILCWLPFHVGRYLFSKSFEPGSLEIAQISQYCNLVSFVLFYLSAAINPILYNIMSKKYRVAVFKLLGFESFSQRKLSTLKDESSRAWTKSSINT

The first test concerns the target rat GHS-R (GHS receptor) expressed on CHO-GHSR62 cells (rat) (UniProt O08725). The test can be described thus: cell-based or functional assay.
Take B1: the Activity EC50 was 2.6 nM.

The molecule GSC(S‑heptyl)FLSPEHQRVQQRKESKKPPAKLQPR [[Cys^3(S-Heptyl)]-hGhrelin] showed an Activity EC50 of 1.4 nM.

Turning to GSDFLSPEHQRVQQRKESKKPPAKLQPR (Asp 3 side-chain heptyl ester (O-C7H15)) [[Asp^3(O-Heptyl)]-hGhrelin], the Activity EC50 came out at 5.1 nM.

B2 came in with an Activity EC50 of 34 nM.

With B3, the Ca-releasing activity EC50 was found to be 3000 nM.

Regarding B4, the Activity EC50 came to 11 nM.

Consider GSC(Trt)FLSPEHQRVQQRKESKKPPAKLQPR [[Cys^3(Trityl)]-hGhrelin], for which the Activity EC50 was found to be 20 nM.

GSC(Octyl)FLSPEHQKAQQRKESKKPPAKLQPR [[Cys^3(Octyl)]-rGhrelin] gave a Ca-releasing activity EC50 of 5.4 nM and an EC50 value of 5.4 nM.

On to B5, for which the Ca-releasing activity EC50 came to 35 nM.

Consider B6, for which the Ca-releasing activity EC50 stood at 380 nM.

Take B7: the Ca-releasing activity EC50 stood at 7.4 nM.

Consider YGSS(Octanoyl)FLSPEHQKAQQRKESKKPPAKLQPR [[N-Tyr]-rGhrelin], for which the Ca-releasing activity EC50 is 120 nM.

As to B8, the Ca-releasing activity EC50 was 24 nM.

B9 came in with an Activity EC50 of 38 nM.

GSXFLSPEHQRVQQRKESKKPPAKLQPR (position 3 (X) is 2-D-naphthylalanine (D-Nal)) [[2-^DNal^3]-hGhrelin] gave an Activity EC50 of over 10000 nM.

B10 registered a Ca-releasing activity EC50 of 1700 nM.

Molecule B11 registered a Ca-releasing activity EC50 of 1.1 nM.

GSDFLSPEHQRVQQRKESKKPPAKLQPR (Asp 3 side-chain heptylamide (NH-C7H15)) [[Asp^3(NH-Heptyl)]-hGhrelin] came in with an Activity EC50 of 11 nM.

Regarding GST(Octanoyl)FLSPEHQRVQQRKESKKPPAKLQPR [[Thr^3(Octanoyl)]-hGhrelin], the Activity EC50 is 10 nM.

With GSXFLSPEHQRVQQRKESKKPPAKLQPR (position 3 (X) is norleucine (Nle)) [[Nle^3]-hGhrelin], the Activity EC50 turned out to be 2800 nM.

In turn, B12 had a Ca-releasing activity EC50 of 1.1 nM.

In the case of GSXFLSPEHQRVQQRKESKKPPAKLQPR (position 3 (X) is cyclohexylalanine (Cha)) [[Cha^3]-hGhrelin], the Activity EC50 came out at 19 nM.

GSXFLSPEHQRVQQRKESKKPPAKLQPR (position 3 (X) is 2-aminododecanoic acid (Adod; side chain n-C10H21)) [[Adod^3]-hGhrelin] came in with an Activity EC50 of 0.91 nM.

B13 showed a Ca-releasing activity EC50 of 12 nM.

Molecule B14 gave a Ca-releasing activity EC50 of 10 nM.

The molecule B15 yielded a Ca-releasing activity EC50 of 78 nM.

Take GSXFLSPEHQRVQQRKESKKPPAKLQPR (position 3 (X) is 2-L-naphthylalanine (Nal)) [[2-^LNal^3]-hGhrelin]: the Activity EC50 amounted to 8.2 nM and the EC50 value is 8.2 nM.

In the next test the target is rat GHS-R (GHS receptor) expressed on CHO-GHSR62 cells (rat, UniProt O08725 1-364). Nature of the test: cell-based or functional assay.
rat GHS-R (GHS receptor) expressed on CHO-GHSR62 cells, sequence (O08725 whole entry): as the sequence (O08725 whole entry) above
As to B16, the “Ca-releasing activity EC50” value was 4.8 nM.

For the molecule Gly-Ser-Ser(Octanoyl)-NH2 (N-terminus assumed; SMILES CCCCCCCC(=O)OC[C@H](NC(=O)[C@H](CO)NC(=O)CN)C(N)=O) [Ghrelin (1-3)-amide], the “Ca-releasing activity EC50” value is over 10000 nM.

As for B17, the “Ca-releasing activity EC50” value was 2.6 nM.

With B18, the “Ca-releasing activity EC50” value amounted to 160 nM.

For the molecule B19, the “Ca-releasing activity EC50” value stood at 6.2 nM.

Turning to B20, the “Ca-releasing activity EC50” value was found to be 13 nM.

Consider GSS(Octanoyl)FL [Ghrelin (1-5)], for which the “Ca-releasing activity EC50” value was found to be 68 nM.
